Laboratory results taken from PMC11161652, “ASXLs binding to the PHD2/3 fingers of MLL4 provides a mechanism for the recruitment of BAP1 to active enhancers” (Nature Communications, 2024).

B1: PHD2 and PHD3 fingers of human MLL4 (aa 227-324) [human] / ASXL2 peptide (residues 650-670 of ASXL2) [human] (parent complex)
chain 1: ARCAVCEGPGELCDLFFCTSCGHHYHGACLDTALTARKRAGWQCPECKVCQACRKPGNDSKMLVCETCDKGYHTFCLKPPMEELPAHSWKCKACRVCR
chain 2: NRTGARTLADIKAKAQLVKAQ

Variants of: B1
Test: fluorescence spectroscopy

Variant	Kd [µM]
chain 1 ARCAVCEGPGELCDLFFCTSCGHHYHGACLDTALTARKRAGWQCPECKVCQACRKPGNDSKMLVCKTCDKGYHTFCLKPPMEELPAHSWKCKACRVCR [chain 1 E66K]	10

Variants of: B1
Test: fluorescence spectroscopy
Remark: another data set of the same source

Variant	Kd [µM]
chain 2 NRTGAITLADIKAKAQLVKAQ [chain 2 R6I]	11
